Data taken from the supplement of paper PMC9732359.
± gives the uncertainty stated by the source.

Assay: protein stability index of a GFP-peptide fusion (yeast GPS) (PSI 1-4); higher = more stable; sorted into four equal gates, so the index is relative within each strain
Details: pdr5∆
Procedure, shortened: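 Plasmids in a pooled yeast library fused tiled 17-residue yeast protein peptides downstream of GFP and also expressed Cherry. Mid-log cultures grown without leucine were sorted into four equal gates by GFP/Cherry fluorescence ratio. Each gate's plasmids were PCR-amplified and Illumina-sequenced, and reads were matched to strains by barcodes. The protein stability index is derived by multiplying each gate's read frequency by its gate number and summing the results.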
GVSLLIAGHDEFNGFSL [PRE8] gave a protein stability index of 2.18 ± 0.1. In the case of GVSSPGFSPTSPTYSPT [RPO21], the protein stability index is reported as 3 ± 0.058. GWKYEDVVAKLEAKRKV [RPL16A] gave a protein stability index of 1.88 ± 0.063. In the case of GWLGALTMANLPSWSLG [ARP7], the protein stability index is reported as 3.08 ± 0.062. With GWPKLQLGPQTPAFNTA [ECM29] the protein stability index was 1.48 ± 0.16. In the case of GYALRDVQARRQFVSNV [RPP1], the protein stability index is reported as 1.99 ± 0.16. Work on GYDPALLNILSGLPTCD [RPN2] yielded a protein stability index of 2.91 ± 0.11. GYDPIVSTRAIDLLWKG [PRP28] showed a protein stability index of 2.03 ± 0.091. For GYFGKVGMRYFHKQQAH [RPL28], the protein stability index was 2.76 ± 0.095. GYLDDSEILIISSLMFD [IRR1] showed a protein stability index of 2.91 ± 0.06. GYSGYGNGITNTTTRVI [SNF5] gave a protein stability index of 3.72 ± 0.24. For GYYLSLGSGSLAAMAVL [PUP1], the protein stability index was 1.98 ± 0.29. In the case of HAADSQNNKPSFVFGQA [YLR335W/NUP2], the protein stability index is reported as 2.95 ± 0.092. For HAIIIFGYPETIANSII [YMR153W/NUP53], the protein stability index was 2.04 ± 0.065. HCEDKDYKTAFSYFFES [RPN6] gave a protein stability index of 2.83 ± 0.071. With HDAIFSIYKYIHLNELL [SNF12] the protein stability index was 2.43 ± 0.046. HDWLNALDGDLIELLEK [YCG1] gave a protein stability index of 3.32 ± 0.2. Work on HEDEKLIPTIFRYITTW [PRP8] yielded a protein stability index of 2.25 ± 0.048. HEFFIANHDDQDDIDEM [SRP68] gave a protein stability index of 2.64 ± 0.061. Work on HEFTLSFTYELKQHNQN [BRR2] yielded a protein stability index of 1.97 ± 0.054. For HEILSEPAIEEENGDSI [MED1], the protein stability index was 3.11 ± 0.12. In the case of HELREKERISVAAASKI [PRE2], the protein stability index is reported as 2.77 ± 0.049. Work on HELSSSHTSLVKIGKFI [SRB8] yielded a protein stability index of 2.61 ± 0.033. With HETTFMTAMRLMLKKLK [YML031W/NDC1] the protein stability index was 2.56 ± 0.094. Work on HFGHCFNITDNGVRALF [GRR1] yielded a protein stability index of 2.65 ± 0.13. With HFTSPIRRYCDVVAHRQ [DIS3] the protein stability index was 2.21 ± 0.066. For HGMFSSASVRALIENWA [FAS1], the protein stability index was 1.84 ± 0.12. HGNLASCHGHFGHLKLA [RPO31] showed a protein stability index of 1.45 ± 0.061. With HHRDSNFPDEDDDDSRK [SKP1] the protein stability index was 3.55 ± 0.17. For HHYEECAERVKIQQQQP [QCR6], the protein stability index was 3.04 ± 0.18. Sequence HILRISFLDRKRAKEFI [SIN4] has a protein stability index of 2.67 ± 0.078. For HISFNFSMLQMAFEASA [BRR2], the protein stability index was 1.45 ± 0.066. Sequence HIVYSLLVNPDIDLETY [YML103C/NUP188] has a protein stability index of 2.34 ± 0.042. In the case of HKQVYPLRMETIPILES [DSN1], the protein stability index is reported as 2.37 ± 0.05. Work on HLLIKIIRQLSELNEGN [SRB8] yielded a protein stability index of 2.77 ± 0.089. Work on HLLPRNEWIKAQEDVPY [QCR7] yielded a protein stability index of 1.68 ± 0.086. With HLLVKQGDGLLTKLQKY [RPN7] the protein stability index was 2.44 ± 0.1. Sequence HLLYPPHIIAVACLFIT [SSN8] has a protein stability index of 1.27 ± 0.038. Work on HLNHYILLRYHHNDISN [YCG1] yielded a protein stability index of 1.17 ± 0.068. HLSTYLKVYKVGDIVDI [RPL21A] gave a protein stability index of 1.49 ± 0.061. With HLVELLLVFRNADLDLD [YDL116W/NUP84] the protein stability index was 2.46 ± 0.098. HLVSNELEQLSSEALEA [RPL10] gave a protein stability index of 1.39 ± 0.042. In the case of HMMKRWGYQMVWAPTQK [POP1], the protein stability index is reported as 2.4 ± 0.051. For HNAKNGTLDKNSQTVSG [SNF2], the protein stability index was 2.42 ± 0.2. Sequence HNGREGSIEEPELNVSL [MCD1] has a protein stability index of 3.5 ± 0.15. In the case of HPIMETIVNDSNYDWLF [RPN9], the protein stability index is reported as 2.34 ± 0.057. For HPYLFEGAEPGPPYTTD [ISW2], the protein stability index was 3.14 ± 0.066. With HQHIGKASTISRGAVSG [RPL2A] the protein stability index was 2.39 ± 0.059. In the case of HQPITSEQKMKEDADLK [SIR4], the protein stability index is reported as 3.36 ± 0.1. HRQEIFKDSPMDLFMST [GAL11] showed a protein stability index of 2.98 ± 0.059. HSDRYHRVAENWRKQKG [RPL32] showed a protein stability index of 2.99 ± 0.2.
